Our source for the Kd values is article PMC11446282.

For this assay, the target named is fluorescent peptide probe FITC-PEG2-…-Nle-IKKLEW. Nature of the assay: fluorescence polarisation.

pKd: −log10 of the molar value.

Chain of B55α (His-Strep-TEV fusion protein) (P63151 whole entry, the tested form may be a part): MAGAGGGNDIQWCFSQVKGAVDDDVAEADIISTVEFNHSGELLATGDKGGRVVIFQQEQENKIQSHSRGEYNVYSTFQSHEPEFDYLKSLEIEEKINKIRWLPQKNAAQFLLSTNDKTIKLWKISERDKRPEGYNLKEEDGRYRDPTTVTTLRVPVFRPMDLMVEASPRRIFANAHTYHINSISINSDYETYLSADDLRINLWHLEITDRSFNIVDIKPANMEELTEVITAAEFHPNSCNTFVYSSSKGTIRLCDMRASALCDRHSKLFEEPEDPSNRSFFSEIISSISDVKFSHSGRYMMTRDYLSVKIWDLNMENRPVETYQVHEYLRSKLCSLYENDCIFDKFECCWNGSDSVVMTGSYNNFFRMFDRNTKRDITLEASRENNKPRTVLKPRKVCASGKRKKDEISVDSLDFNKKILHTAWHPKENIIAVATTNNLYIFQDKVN

With “B55α (His-Strep-TEV fusion protein) (from UniProt P63151 1-447) (natural protein)”, the pKd was 8.22.
